# Assay results taken from IntAct's records for PubMed 18200045.
# B1: Epidermal growth factor receptor substrate 15 (Homo sapiens), P42566 (parent)
# chain: MAAAAQLSLTQLSSGNPVYEKYYRQVDTGNTGRVLASDAAAFLKKSGLPDLILGKIWDLADTDGKGILNKQEFFVALRLVACAQNGLEVSLSSLNLAVPPPRFHDTSSPLLISGTSAAELPWAVKPEDKAKYDAIFDSLSPVNGFLSGDKVKPVLLNSKLPVDILGRVWELSDIDHDGMLDRDEFAVAMFLVYCALEKEPVPMSLPPALVPPSKRKTWVVSPAEKAKYDEIFLKTDKDMDGFVSGLEVREIFLKTGLPSTLLAHIWSLCDTKDCGKLSKDQFALAFHLISQKLIKGIDPPHVLTPEMIPPSDRASLQKNIIGSSPVADFSAIKELDTLNNEIVDLQREKNNVEQDLKEKEDTIKQRTSEVQDLQDEVQRENTNLQKLQAQKQQVQELLDELDEQKAQLEEQLKEVRKKCAEEAQLISSLKAELTSQESQISTYEEELAKAREELSRLQQETAELEESVESGKAQLEPLQQHLQDSQQEISSMQMKLMEMKDLENHNSQLNWCSSPHSILVNGATDYCSLSTSSSETANLNEHVEGQSNLESEPIHQESPARSSPELLPSGVTDENEVTTAVTEKVCSELDNNRHSKEEDPFNVDSSSLTGPVADTNLDFFQSDPFVGSDPFKDDPFGKIDPFGGDPFKGSDPFASDCFFRQSTDPFATSSTDPFSAANNSSITSVETLKHNDPFAPGGTVVAASDSATDPFASVFGNESFGGGFADFSTLSKVNNEDPFRSATSSSVSNVVITKNVFEETSVKSEDEPPALPPKIGTPTRPCPLPPGKRSINKLDSPDPFKLNDPFQPFPGNDSPKEKDPEIFCDPFTSATTTTNKEADPSNFANFSAYPSEEDMIEWAKRESEREEEQRLARLNQQEQEDLELAIALSKSEISEA
# partner: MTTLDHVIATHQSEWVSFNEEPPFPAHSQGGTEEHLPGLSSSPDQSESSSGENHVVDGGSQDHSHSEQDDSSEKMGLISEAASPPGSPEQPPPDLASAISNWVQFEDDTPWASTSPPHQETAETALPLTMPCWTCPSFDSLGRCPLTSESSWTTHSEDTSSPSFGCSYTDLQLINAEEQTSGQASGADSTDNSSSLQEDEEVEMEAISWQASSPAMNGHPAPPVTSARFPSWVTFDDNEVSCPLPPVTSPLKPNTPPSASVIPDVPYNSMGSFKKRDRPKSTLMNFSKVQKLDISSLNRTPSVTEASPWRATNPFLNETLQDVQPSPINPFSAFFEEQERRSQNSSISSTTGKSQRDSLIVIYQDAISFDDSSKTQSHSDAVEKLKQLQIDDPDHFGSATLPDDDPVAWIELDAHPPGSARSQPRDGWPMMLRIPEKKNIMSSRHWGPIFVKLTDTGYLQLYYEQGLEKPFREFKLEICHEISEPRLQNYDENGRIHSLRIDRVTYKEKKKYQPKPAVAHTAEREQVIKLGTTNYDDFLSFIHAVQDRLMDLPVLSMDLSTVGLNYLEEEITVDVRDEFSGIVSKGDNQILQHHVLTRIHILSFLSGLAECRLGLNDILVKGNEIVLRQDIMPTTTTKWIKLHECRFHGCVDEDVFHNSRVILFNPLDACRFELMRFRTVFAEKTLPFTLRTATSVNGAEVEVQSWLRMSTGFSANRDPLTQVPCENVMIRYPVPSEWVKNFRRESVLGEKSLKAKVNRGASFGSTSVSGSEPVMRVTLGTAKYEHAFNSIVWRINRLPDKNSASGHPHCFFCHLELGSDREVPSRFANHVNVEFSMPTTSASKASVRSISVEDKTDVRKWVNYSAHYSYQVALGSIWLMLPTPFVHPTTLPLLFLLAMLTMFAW
# Variants of: B1
# Conditions: with ston2_human STON2, Q8WXE9
row,effect of a mutation on the interaction,Variant
1,decreasing interaction,W266A

# Variants of: B1
# Conditions: with ston2_human STON2, Q8WXE9
# Remark: another data set of the same source
row,effect of a mutation on the interaction,Variant
1,decreasing interaction,W169A

# Variants of: B1
# Conditions: with ston2_human STON2, Q8WXE9
# Remark: another data set of the same source
row,effect of a mutation on the interaction,Variant
1,disrupting interaction,W169A

# Variants of: B1
# Conditions: with ston2_human STON2, Q8WXE9
# Remark: another data set of the same source
row,effect of a mutation on the interaction,Variant
1,decreasing interaction,V154E

# Variants of: B1
# Conditions: with ston2_human STON2, Q8WXE9
# Remark: another data set of the same source
row,effect of a mutation on the interaction,Variant
1,disrupting interaction,V154E

# Variants of: B1
# Conditions: with ston2_human STON2, Q8WXE9
# Remark: another data set of the same source
row,effect of a mutation on the interaction,Variant
1,decreasing interaction,Y193D
